In the RNAGym collection of RNA variant scans (doi:10.7554/elife.90254) one finds self-cleavage data, which are given here for 20 variants.

Sequences and labels used below:
B1: LINE1-full (parent)
chain: UACGUAGGUGGUUUUCCCCUGAUAGUGCUAAGGGGGCCUGGAAGUUUGGACUGGGCAGAGCUCAACACAGCGUGGCAAAGUGGCUGUGGCUAGACUGCCUCUCUGGAUUCCUCGUCACUCAGCAGGGCAUCUCUGAGAGAAAUGCC

The variants in this data set derive from B1. Description: self-cleavage, relative activity (ratio to wild type); higher = more cleavage; in vitro, sequencing; the parent is a self-cleaving ribozyme.
As to UACGUAGGUGGUUUUCCCCUGAUAGUGCUAAGGGGGCCUGGAAGUUUGGACUGGGCAGAGCUCAACACAGCGUGGCAAAGCGGCUGUGGUUAGACUGCCUCUCUGGAUUCCUCGUCACUCAGCAGGGCAUCUCUGAGAGAAAUGCC [U81C C90U], the self-cleavage came out at 0.03.

Take UACGUAGGUGGUUUUCCCCUGAUAGUGCUAAGGGGGCCUGGAAGUUUGGACUGGGCAGAGCUCAACACAGCGUGGCAAAGCGGCUUUGGCUAGACUGCCUCUCUGGAUUCCUCGUCACUCAGCAGGGCAUCUCUGAGAGAAAUGCC [U81C G86U]: the self-cleavage stood at 0.13.

For UACGUAGGUGGUUUUCCCCUGAUAGUGCUAAGGGGGCCUGGAAGUUUGGACUGGGCAGAGCUCAACACAGCGUGGCAAAGCGGCUGUGGCUAGACUGCCUCUCUGGAUUCCUCGUCACUCAGCAGGGCUUCUCUGAGAGAAAUGCC [U81C A129U], the self-cleavage is 1.48.

For UACGUAGGUGGUUUUCCCCUGAUAGUGCUAAGGGGGCCUGGAAGUUUGGACUGGGCAGAGCUCAACACAGCGUGGCAAAGCGGCUGUGGCUAGACUGCCUCUCUAGAUUCCUCGUCACUCAGCAGGGCAUCUCUGAGAGAAAUGCC [U81C G105A], the self-cleavage was found to be 1.06.

For the variant UACGUAGGUGGUUUUCCCCUGAUAGUGCUAAGGGGGCCUGGAAGUUUGGACUGGGCAGAGCUCAACACAGCGUGGCAAAGCGGCUGUGGCUAGACUGCCUCUCUGGAUUCCUCGUCACUCAGCAGGUCAUCUCUGAGAGAAAUGCC [U81C G127U], the self-cleavage came out at 1.22.

Regarding UACGUAGGUGGUUUUCCCCUGAUAGUGCUAAGGGGGCCUGGAAGUUUGGACUGGGCAGAGCUCAACACAGCGUGGCAAAGCGGCAGUGGCUAGACUGCCUCUCUGGAUUCCUCGUCACUCAGCAGGGCAUCUCUGAGAGAAAUGCC [U81C U85A], the self-cleavage came out at 0.16.

Turning to UACGUAGGUGGUUUUCCCCUGAUAGUGCUAAGGGGGCCUGGAAGUUUGGACUGGGCAGAGCUCAACACAGCGUGGCAAAGCGGCUGUGGCUAGACUGCCUCUCUGGAUUCCUCGUCACUCAGCAGGGCAUCUCUGGGAGAAAUGCC [U81C A136G], the self-cleavage stood at 1.12.

Consider UACGUAGGUGGUUUUCCCCUGAUAGUGCUAAGGGGGCCUGGAAGUUUGGACUGGGCAGAGCUCAACACAGCGUGGCAAAGCGGCUGUGGCUAGACUGCCUCUCUGGAUUCCUCGUUACUCAGCAGGGCAUCUCUGAGAGAAAUGCC [U81C C116U], for which the self-cleavage is 1.14.

As for UACGUAGGUGGUUUUCCCCUGAUAGUGCUAAGGGGGCCUGGAAGUUUGGACUGGGCAGAGCUCAACACAGCGUGGCAAAGCGGCUGUGGCUAGACUGCCUCUCUGGAUUCCUCGUAACUCAGCAGGGCAUCUCUGAGAGAAAUGCC [U81C C116A], the self-cleavage came to 0.59.

Turning to UACGUAGGUGGUUUUCCCCUGAUAGUGCUAAGGGGGCCUGGAAGUUUGGACUGGGCAGAGCUCAACACAGCGUGGCAAAGCGGCUGUGGCUAGACUGCCUCUCUGGAUUCCUCGUCACUCAGCAGGGCAUCUCUGAGAGGAAUGCC [U81C A140G], the self-cleavage worked out at 1.07.

On to UACGUAGGUGGUUUUCCCCUGAUAGUGCUAAGGGGGCCUGGAAGUUUGGACUGGGCAGAGCUCAACACAGCGUGGCAAAGCGGCUGUGGCUAGACUGCCUCUCUGGAUUCCUCGUCACUCAUCAGGGCAUCUCUGAGAGAAAUGCC [U81C G122U], for which the self-cleavage was determined as 1.14.

Regarding UACGUAGGUGGUUUUCCCCUGAUAGUGCUAAGGGGGCCUGGAAGUUUGGACUGGGCAGAGCUCAACACAGCGUGGCAAAGCGGCUGCGGCUAGACUGCCUCUCUGGAUUCCUCGUCACUCAGCAGGGCAUCUCUGAGAGAAAUGCC [U81C U87C], the self-cleavage is 0.4.

As for UACGUAGGUGGUUUUCCCCUGAUAGUGCUAAGGGGGCCUGGAAGUUUGGACUGGGCAGAGCUCAACACAGCGUGGCAAAGCGGCUGUGGCUAGACUGCCUCUCUGGAUUCCUCGUCACUCAGCAGGGCAUCUAUGAGAGAAAUGCC [U81C C133A], the self-cleavage is 0.9.

As to UACGUAGGUGGUUUUCCCCUGAUAGUGCUAAGGGGGCCUGGAAGUUUGGACUGGGCAGAGCUCAACACAGCGUGGCAAAGCGGCUGUGGCUAGAAUGCCUCUCUGGAUUCCUCGUCACUCAGCAGGGCAUCUCUGAGAGAAAUGCC [U81C C95A], the self-cleavage was 0.03.

As to UACGUAGGUGGUUUUCCCCUGAUAGUGCUAAGGGGGCCUGGAAGUUUGGACUGGGCAGAGCUCAACACAGCGUGGCAAAGCGGCUGUGGCUAGACUGCCUCUCUGGAUUCCUCGUCACUCAGCAGGGUAUCUCUGAGAGAAAUGCC [U81C C128U], the self-cleavage was determined as 1.19.

Turning to UACGUAGGUGGUUUUCCCCUGAUAGUGCUAAGGGGGCCUGGAAGUUUGGACUGGGCAGAGCUCAACACAGCGUGGCAAAGCGGCUGUGGCUAGACUGCCUCUCUGGAUUCCUCGUCACUCAGCAGGGCAUCUCUGAGAGAACUGCC [U81C A142C], the self-cleavage was 1.18.

On to UACGUAGGUGGUUUUCCCCUGAUAGUGCUAAGGGGGCCUGGAAGUUUGGACUGGGCAGAGCUCAACACAGCGUGGCAAAGCGGCUGUGGCUAGACUGCCUCUCUGGAUUCCUCGUCACUCAGCAGGGCAUCUCUGAGAGAAGUGCC [U81C A142G], for which the self-cleavage turned out to be 1.38.

With UACGUAGGUGGUUUUCCCCUGAUAGUGCUAAGGGGGCCUGGAAGUUUGGACUGGGCAGAGCUCAACACAGCGUGGCAAAGCGGCUGUGGCUAGACUGCCACUCUGGAUUCCUCGUCACUCAGCAGGGCAUCUCUGAGAGAAAUGCC [U81C U100A], the self-cleavage was 1.05.

Consider UACGUAGGUGGUUUUCCCCUGAUAGUGCUAAGGGGGCCUGGAAGUUUGGACUGGGCAGAGCUCAACACAGCGUGGCAAAGCGGCUGUGGCUAGACUGCCUCUCUGGAUUCCUCGUCACUCAGCAGGGCAUCUCUGAGGGAAAUGCC [U81C A138G], for which the self-cleavage was determined as 1.14.

Turning to UACGUAGGUGGUUUUCCCCUGAUAGUGCUAAGGGGGCCUGGAAGUUUGGACUGGGCAGAGCUCAACACAGCGUGGCAAAGCGACUGUGGCUAGACUGCCUCUCUGGAUUCCUCGUCACUCAGCAGGGCAUCUCUGAGAGAAAUGCC [U81C G83A], the self-cleavage amounted to 1.46.
